The target in assay [1] is T1, human CA9 (carbonic anhydrase IX) (human, UniProt Q16790 38-414). As to the kind of experiment: BIAcore, summary of Table 13; reference xi155D5; told of the group of humanized variants. On the procedure: (§1) Antibody concentrations were adjusted to generate 30-40 RU signal when bound to the antigen. […] The sensor surface was washed by injecting HBS-P buffer for 1 min at a flow rate of 50 μL/min. To record the antigen association to the captured mAb, a series of increasing concentrations of antigen was injected for 60 sec at a flow rate of 50 μL/min. The dissociation of antigen was monitored for 30 min at the same flow rate. The sensor surface was regenerated by injecting 3 M MgCl₂ for 1 min and then 30 sec at a flow rate of 30 μL/min. Sensograms were analyzed with Biacore T100 Evaluation Software using a 1:1 Langmuir binding model.
(§2) xi155D5 and the humanized variants were purified by standard protein A chromatography or the decapping method, and their affinity was analyzed using BIAcore (Table 13).
Background: In SPR one partner is held on a chip, and binding of the other changes the refractive index at the surface.

In assay [2] the target is T1, human CA9 (carbonic anhydrase IX). Briefly: BIAcore T100, mAb captured on anti-human IgG, antigen as analyte, 1:1 model; mAb purified by protein A (ProA). The method, then:
as §1, §2

The target is the same in assay [3]. As to the kind of experiment: BIAcore T100, mAb captured on anti-human IgG, antigen as analyte, 1:1 model; mAb purified by the decapping method (Decapped). On the procedure: as §1, §2
Assay [4] concerns the target T2, human endosialin/TEM1 extracellular domain fused to mouse IgG2b Fc (human).
T2 construct: also called TEM1-Fc
T2 chain: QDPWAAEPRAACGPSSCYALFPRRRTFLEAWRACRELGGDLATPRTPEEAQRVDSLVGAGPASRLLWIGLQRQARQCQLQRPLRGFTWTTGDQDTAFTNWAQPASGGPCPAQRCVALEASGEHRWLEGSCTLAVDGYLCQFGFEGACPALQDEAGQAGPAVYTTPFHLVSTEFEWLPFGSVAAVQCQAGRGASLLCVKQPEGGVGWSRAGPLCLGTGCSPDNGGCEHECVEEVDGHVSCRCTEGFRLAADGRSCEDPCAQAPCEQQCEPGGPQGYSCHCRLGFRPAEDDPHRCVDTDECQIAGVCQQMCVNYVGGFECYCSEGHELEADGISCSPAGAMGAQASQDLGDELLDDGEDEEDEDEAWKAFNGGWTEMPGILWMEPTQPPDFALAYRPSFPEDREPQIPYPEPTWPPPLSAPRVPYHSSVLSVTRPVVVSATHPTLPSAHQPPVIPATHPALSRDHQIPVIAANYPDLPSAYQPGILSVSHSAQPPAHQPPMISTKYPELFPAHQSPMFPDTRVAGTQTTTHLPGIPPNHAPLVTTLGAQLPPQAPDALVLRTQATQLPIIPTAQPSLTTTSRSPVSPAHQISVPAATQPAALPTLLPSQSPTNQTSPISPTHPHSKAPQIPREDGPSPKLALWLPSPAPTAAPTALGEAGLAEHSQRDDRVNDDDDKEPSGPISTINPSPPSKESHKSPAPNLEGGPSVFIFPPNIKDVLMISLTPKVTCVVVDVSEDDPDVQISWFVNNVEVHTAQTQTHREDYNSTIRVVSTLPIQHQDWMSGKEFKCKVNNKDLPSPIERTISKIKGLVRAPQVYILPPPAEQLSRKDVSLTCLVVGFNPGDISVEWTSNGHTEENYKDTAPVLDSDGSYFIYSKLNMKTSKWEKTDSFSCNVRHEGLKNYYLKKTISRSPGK
As to the kind of experiment: SPR, ligand TEM1-Fc, flow cell Fc3.

The target in assay [5] is T2, human endosialin/TEM1 extracellular …. Briefly: SPR, ligand TEM1-Fc, flow cell Fc4.
In assay [6] the target is T1, human CA9 (carbonic anhydrase IX). As to the kind of experiment: SPR, ligand CA9, flow cell Fc4.
For assay [7] the target is unchanged. Briefly: SPR, ligand CA9, flow cell Fc3.
Assay [8] has the same target. Briefly: SPR (BIAcore), biotin-CA9 captured on CAP chip, antibody 0-50 nM as analyte. The method, then:
To determine if chimerization, and therefore the loss of Cys80-Cys171 disulfide bond, results in structural perturbations leading to loss of antigen binding, the binding affinity of mAbs 155D5, xi155D5, 1-55-2, and xi1-55-2 by surface plasmon resonance was evaluated. Biotinylated ligand (biotin-hTEM1 for 1-55-2, biotin-CA9 for 155D5) was captured on a coated biotin CAP BIAcore chip (GE Healthcare, Piscataway, N.J.) using HBS-EP as running buffer. Final antigen capture levels were 130 RU and 280 RU, respectively, for biotin-TEM1 and biotin-CA9. Serial dilutions of antibody (120 μL of 0-50 nM) were passed over the ligand-coated chip. […] The chip surface was regenerated with 6 M GuHCl, 250 mM NaOH. Sensograms were double referenced and kinetic parameters were determined using BIAEvaluations software (ver. 4.1).

In general, Kd refers to the concentration at which binding is half-saturated. A high value points to lower affinity. As a reminder, the koff is a measure of how fast the partners let go of each other. A lower koff goes with slow dissociation. As usually defined, the kon is the second-order rate constant of association. Lower therefore signals slow association.

B1: zu155D5-6 (antibody, human IgG1, kappa)
heavy: not shown
light: DIQMTQSPSTVSAAVGGTVTITCQASQSISSYLAWYQQKPGKAPKLLIYYASTLASGVPSRFSGSGSGTEFTLTITGVQCDDAATYYCLGVYGYSFDDGIAFGGGTKVEIKRTVAAPSVFIFPPSDEQLKSGTASVVCLLNNFYPREAKVQWKVDNALQSGNSQESVTEQDSKDSTYSLSSTLTLSKADYEKHKVYACEVTHQGLSSPVTKSFNRGEC
notes: Humanized 155D5, human IgG1 kappa; Tested both protein A purified and decapped
Consider B1, for which the “fold difference in KD against chimeric xi155D5” value in assay [1] is under 2 fold. In assay [2], the dissociation constant Kd turned out to be 0.533 nM, the off-rate constant (koff) came out at 0.000477 s⁻¹ and the association rate constant (kon) is 898000 M⁻¹ s⁻¹. In assay [3], this molecule showed a Kd of 0.568 nM, an off-rate (koff) of 0.000319 s⁻¹ and an on-rate constant (kon) of 558000 M⁻¹ s⁻¹.

B2: zu155D5-7 (antibody, human IgG1, kappa)
heavy: not shown
light: DIQMTQSPSTLSASVGDRVTITCQASQSISSYLAWYQQKPGKAPKLLIYYASTLASGVPSRFSGSGSGTEFTLTITGVQCDDAATYYCLGVYGYSFDDGIAFGGGTELEIKRTVAAPSVFIFPPSDEQLKSGTASVVCLLNNFYPREAKVQWKVDNALQSGNSQESVTEQDSKDSTYSLSSTLTLSKADYEKHKVYACEVTHQGLSSPVTKSFNRGEC
notes: as for B1
With B2, the “fold difference in KD against chimeric xi155D5” value in assay [1] was under 2 fold. Further, in assay [2], binding was put at a Kd of 0.534 nM, the koff is 0.000458 s⁻¹ and the association rate constant (kon) turned out to be 869000 M⁻¹ s⁻¹. In assay [3], this molecule yielded a Kd of 0.68 nM, a koff of 0.000319 s⁻¹ and an on-rate constant (kon) of 485000 M⁻¹ s⁻¹.

B3: xi155D5/xi1-55-2 bivalent/bispecific antigen-binding molecule (bispecific antibody)
heavy 1: QSVKESGGRLVTPGTPLTLTCTVSGFSLNSYAMIWVRQAPGEGLEYIGFITTGGTTYYASWAKGRFTISRTSTTVDLKLTRPTTEDTATYFCARDRVKSYDDYGDLDAFEPWGPGTLVTISS
light 1: ELVMTQTPSSVSAAVGGTVTINCQASQSISSYLAWYQQKPGQPPKLLIYYASTLASGVPSRFKGSGSGTEFTLTITGVQCDDAATYYCLGVYGYSFDDGIAFGGGTELEIKRTVAAPSVFIFPPSDEQLKSGTASVVCLLNNFYPREAKVQWKVDNALQSGNSQESVTEQDSKDSTYSLSSTLTLSKADYEKHKVYACEVTHQGLSSPVTKSFNRGEC
heavy 2: QSVEESGGDLVKPEGSLTLTCTASGFSFSSSYWGCWVRQAPGKGPEWIACIYGGSSGTTYYPNWAKGRFSISKTSSTTVTLQMASLTAADTATYFCARVTNGGDWDFKLWGPGTLVTISS
light 2: ELVMTQTPASVEVAVGGTVTIKCQASQSINTYLAWYQQKPGQPPKLLIYRASTLASGVPSRFKGSGSGTEFTLTISDLECADAATYYCQQSVRVIDVDNTFGGGTEVVVKRTVAAPSVFIFPPSDEQLKSGTASVVCLLNNFYPREAKVQWKVDNALQSGNSQESVTEQDSKDSTYSLSSTLTLSKADYEKHKVYACEVTHQGLSSPVTKSFNRGEC
modifications: maleimido-PEG4-azide on Cys80, joined by copper-free click chemistry to the DBCO on Cys80 of the xi155D5 light chain; maleimido-PEG4-dibenzylcyclooctyne (DBCO) on Cys80, joined by copper-free click chemistry to the azide on Cys80 of the xi1-55-2 light chain
notes: Two papain Fabs linked chemically through their light chain Cys80 residues; mass 95,939 Da by mass spectrometry; also called biFab; bivalent/bispecific Fab-Fab; not shown: human IgG1 CH1 and hinge up to the papain cleavage site
In the case of B3, the Kd in assay [4] came to 0.31 nM; in assay [5], 0.185 nM; in assay [6], 0.15 nM; in assay [7] it was 0.121 nM. Also, the off-rate (koff) in assay [4] was 0.000257 s⁻¹; in assay [5], 0.000189 s⁻¹; in assay [6] it was 4.4e-05 s⁻¹; in assay [7], 3.91e-05 s⁻¹. Besides, the kon in assay [4] stood at 829000 M⁻¹ s⁻¹; in assay [5], 1.02e+06 M⁻¹ s⁻¹; in assay [6], 294000 M⁻¹ s⁻¹; in assay [7], 322000 M⁻¹ s⁻¹.

B4: xi155D5 Fab (Fab, V domains shown)
VH: QSVKESGGRLVTPGTPLTLTCTVSGFSLNSYAMIWVRQAPGEGLEYIGFITTGGTTYYASWAKGRFTISRTSTTVDLKLTRPTTEDTATYFCARDRVKSYDDYGDLDAFEPWGPGTLVTISS
VL: ELVMTQTPSSVSAAVGGTVTINCQASQSISSYLAWYQQKPGQPPKLLIYYASTLASGVPSRFKGSGSGTEFTLTITGVQCDDAATYYCLGVYGYSFDDGIAFGGGTELEIKR
notes: Made from xi155D5 by limited papain digestion and protein A removal of Fc; Fabs were fully decapped; not shown: human IgG1 CH1 and hinge up to the papain cleavage site
In assay [6], B4 had a Kd of 0.0499 nM, an off-rate constant (koff) of 2.59e-05 s⁻¹ and a kon of 519000 M⁻¹ s⁻¹. In assay [7], this molecule came in with a Kd of 0.0383 nM, a koff of 2.19e-05 s⁻¹ and a kon of 572000 M⁻¹ s⁻¹.

B5: xi1-55-2 Fab (Fab, V domains shown)
VH: QSVEESGGDLVKPEGSLTLTCTASGFSFSSSYWGCWVRQAPGKGPEWIACIYGGSSGTTYYPNWAKGRFSISKTSSTTVTLQMASLTAADTATYFCARVTNGGDWDFKLWGPGTLVTISS
VL: ELVMTQTPASVEVAVGGTVTIKCQASQSINTYLAWYQQKPGQPPKLLIYRASTLASGVPSRFKGSGSGTEFTLTISDLECADAATYYCQQSVRVIDVDNTFGGGTEVVVKR
notes: Made from xi1-55-2 by limited papain digestion and protein A removal of Fc; Fabs were fully decapped; not shown: human IgG1 CH1 and hinge up to the papain cleavage site
In assay [4], B5 gave a Kd of 0.382 nM, an off-rate constant (koff) of 0.000329 s⁻¹ and an association rate constant (kon) of 862000 M⁻¹ s⁻¹. In assay [5], this molecule registered a Kd of 0.376 nM, a koff of 0.000326 s⁻¹ and a kon of 865000 M⁻¹ s⁻¹.

B6: 155D5 (rabbit anti-CA9 mAb) (antibody, V domains shown)
VH: QSVKESGGRLVTPGTPLTLTCTVSGFSLNSYAMIWVRQAPGEGLEYIGFITTGGTTYYASWAKGRFTISRTSTTVDLKLTRPTTEDTATYFCARDRVKSYDDYGDLDAFEPWGPGTLVTISS
VL: ELVMTQTPSSVSAAVGGTVTINCQASQSISSYLAWYQQKPGQPPKLLIYYASTLASGVPSRFKGSGSGTEFTLTITGVQCDDAATYYCLGVYGYSFDDGIAFGGGTELEIK
notes: Parental rabbit IgG with rabbit constant regions (Cys80-Cys171 disulfide); also called rabbit 155D5 MAb
In assay [8], B6 yielded a Kd of 0.041 nM, a koff of 2.1e-05 s⁻¹ and an association rate constant (kon) of 510000 M⁻¹ s⁻¹.

Source of the values: patent publication US20160369011A1 (EISAI R AND D MANAGEMENT, published 2016).
